Measured values reported in patent publication US20240218070A1 (MERUS N V, published 2024).

Target: T1, mouse FAP (moFAP) expressed on 293FF cells (mouse, UniProt P97321 1-761)
T1 sequence: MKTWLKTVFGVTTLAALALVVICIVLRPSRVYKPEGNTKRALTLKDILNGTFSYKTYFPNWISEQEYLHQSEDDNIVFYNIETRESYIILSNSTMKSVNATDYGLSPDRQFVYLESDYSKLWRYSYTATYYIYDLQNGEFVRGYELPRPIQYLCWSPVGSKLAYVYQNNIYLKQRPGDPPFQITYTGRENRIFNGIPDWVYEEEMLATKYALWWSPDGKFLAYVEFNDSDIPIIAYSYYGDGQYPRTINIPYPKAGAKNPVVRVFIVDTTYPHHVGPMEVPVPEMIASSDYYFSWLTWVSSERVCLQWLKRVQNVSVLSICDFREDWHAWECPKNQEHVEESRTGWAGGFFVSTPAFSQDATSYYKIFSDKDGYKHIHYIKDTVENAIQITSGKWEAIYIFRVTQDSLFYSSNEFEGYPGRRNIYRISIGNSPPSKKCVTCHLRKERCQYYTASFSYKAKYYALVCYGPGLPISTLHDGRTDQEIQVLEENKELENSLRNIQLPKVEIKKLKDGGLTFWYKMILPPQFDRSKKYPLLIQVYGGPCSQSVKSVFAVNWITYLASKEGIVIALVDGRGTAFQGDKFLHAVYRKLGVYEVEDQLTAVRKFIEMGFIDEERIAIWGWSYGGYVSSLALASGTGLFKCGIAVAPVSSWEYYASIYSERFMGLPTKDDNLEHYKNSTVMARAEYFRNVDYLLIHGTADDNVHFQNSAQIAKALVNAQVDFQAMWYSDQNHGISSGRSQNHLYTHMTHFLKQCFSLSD
Assay: FACS, 293FF cells transfected with moFAP, IgG at 2.5 ug/ml
Protocol: The binding of all test and control antibodies to the cells was tested at a single concentration of 2.5 ug/ml. Goat-anti-human IgG F(ab)2-PE (Invitrogen, H10104) was used as secondary antibody (1:100 in FACS buffer). Ab0625 was used at 10 ug/ml and its binding was detected using Ab0250 (Becton Dickinson, 550767) (1:100 in FACS buffer). The FACS buffer containing PBS (Gibco, cat. #10010-015), 0.5% BSA (Thermo Scientific, cat. #37525), and 2 mM EDTA (Invitrogen, cat. #15575-020) was kept ice cold throughout the assay.
The target cells were harvested, counted, and centrifuged for 5 min at 300 g at 4 °C. Cells were then resuspended in FACS buffer at a concentration of 1×10⁶ cells/ml and transferred (200,000 cells/well) to a U-bottom 96-well FACS plate (BD, cat. #353910). Cells were then centrifuged for 3 min at 300 g at 4° C. and supernatant was discarded. 50 μl of primary antibody solutions were added to the cells, mixed, and incubated for 30 min at 2-8° C. in the dark. Cells were washed by adding 150 μl FACS buffer and centrifuged for 3 min at 300 g at 4° C. Supernatant was discarded, and cells were washed again by adding 200 μl FACS buffer to the plate. Cells were then centrifuged for 3 min at 300 g at 4° C. and afterwards the supernatant was discarded. 50 μl of secondary antibody solutions were added to the cells, mixed, and incubated for 30 min at 2-8° C. in the dark. […]

B1: anti-human FAP bivalent monospecific IgG comprising heavy chain variable region SEQ ID NO: 69 (antibody, V domains shown)
VH: EVQLVETGGGLIQPGGSLRLSCAASGFTVSSNYMSWVRQAPGKGLEWVSVIYSGGSTYYADSVKGRFTISRDNSKNTLYLQMNSLRAEDTAVYYCARGPTDAYPYLDYLWGQGTLVTVSS
VL: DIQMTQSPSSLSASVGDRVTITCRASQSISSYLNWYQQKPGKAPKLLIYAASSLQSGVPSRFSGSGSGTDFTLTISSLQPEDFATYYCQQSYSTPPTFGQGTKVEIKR
notes: IgG1 format, common light chain VK1-39/JK1; also called human/mouse cross-reactive FAP IgG
  binding result: binds
